# Assay results: patent US20120101255A1 (published 2012)
# B1: RXP4 (peptide)
# peptide: RRPPYRVPPKLF
# notes: Synthetic 12-mer from the non-biased phage display screen
# Assays:
# [1] = target: T1, Recombinant Cx43CT (carboxyl terminal domain of rat connexin43, residues 255-382, preceded by GPLG) (rat, UniProt P08050 255-382); assay: SPR, Cx43CT immobilised, peptide 250 µM and higher
# T1 construct: range 255-382; Made as a GST fusion in E. coli and cleaved from GST; 15N-labelled for NMR; also called recombinant CT; carboxyl terminal domain of Cx43
# T1 sequence (P08050 other isoform, or with tags, fused parts or gaps limits assumed): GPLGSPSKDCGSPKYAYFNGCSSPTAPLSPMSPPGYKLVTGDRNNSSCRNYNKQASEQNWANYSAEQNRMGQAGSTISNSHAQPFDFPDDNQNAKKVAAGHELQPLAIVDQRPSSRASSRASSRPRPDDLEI
# Description: II: Applications to Biological Systems,” Biochim. Biophys. Acta 1331(2):131-152 (1997), which is hereby incorporated by reference in its entirety). Specific peptides were presented and, when feasible, dissociation constants (KD) were calculated from the time course of binding and unbinding of the ligand, using a 1:1 (Langmuir) association and dissociation kinetic model (Biacore software package). In both phases (association and dissociation), the first 5-8 seconds of recording were not included in the fit, to avoid artifacts resulting from peptide distribution within the flow cells (Lang et al., “Surface Plasmon Resonance as a Method to Study the Kinetics and Amplitude of Protein-protein Binding,” in PRACTICAL METHODS IN CARDIOVASCULAR […] 936-947 (Stefan Dhein, Friedrich Wilhelm Mohr & Mario Delmar eds., 2005), which is hereby incorporated by reference in its entirety).
# Phage display allows for the rapid screening of thousands of peptides, but the characteristics of binding cannot be properly defined. Furthermore, the peptides are part of a capsid protein, which may affect the ability of the peptide to properly interact with the target protein. […] Higher concentrations of the peptide were tested but an asymptotic maximum response could not be detected.
# [2] = target: Cx43 expressed in N2a (neuroblastoma) cells; assay: cell-based or functional assay
Binder,binding result [1],"junctional conductance (Gj) relative to control during octanol superfusion, RXP-E 0.1 mM in the pipette [2]","junctional conductance (Gj) relative to control with pipette solution at pH 6.2, RXP-E in the pipette [2]"
B1,binds,,
SDDLRSPQLHNGGGSAVPFYSHSHMVRRKPRNPR [RXP-E],,57.6 % of control,57 % of control
